The text below walks through data of patent publication US20220162322A1.

The assay has as its target BDCA-2 (CLEC4C, CD303) on human plasmacytoid dendritic cells (purified pDC or pDC within PBMC) (human) (UniProt Q8WTT0). Briefly: cell-based or functional assay.

Sequence of BDCA-2 (CLEC4C, CD303) on human plasmacytoid dendritic cells (purified pDC or pDC within PBMC) (human) (Q8WTT0 whole entry): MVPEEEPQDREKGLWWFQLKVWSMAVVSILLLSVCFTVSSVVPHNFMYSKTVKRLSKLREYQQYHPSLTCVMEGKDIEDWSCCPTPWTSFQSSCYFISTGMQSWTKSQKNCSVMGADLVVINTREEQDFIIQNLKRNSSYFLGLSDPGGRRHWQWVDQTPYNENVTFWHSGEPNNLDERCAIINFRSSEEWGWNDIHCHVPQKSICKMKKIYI

B1: anti-BDCA-2 mAb BIIB059 (from patent WO2014093396) (antibody, INN chains, looked up, V domains shown)
VH: DVQLVESGGGLVKPGGSLRLSCAASGFTFSTYTMSWVRQAPGKGLEWVATISPGDSFGYYYPDSVQGRFTISRDNAKNSLYLQMNSLRAEDTAVYYCTRDIYYNYGAWFAYWGQGTLVTVSS
VL: DIQLTQSPSSLSASVGDRVTITCKASQSVDYDGDSYMNWYQQKPGKAPKLLIYAASTLESGVPSRFSGSGSGTDFTLTISSLQPEDFATYYCQQANEDPRTFGQGTKVEIK
B1 had an IC50, nM; inhibition of IFNα from ODN stimulated healthy donor PBMC of 0.85 nM; an IC50, ng/ml; inhibition of IFNα from ODN stimulated healthy donor PBMC of 128 ng/mL; an IC90, nM; inhibition of IFNα from ODN stimulated healthy donor PBMC of 7.68 nM; an IC90, ng/ml; inhibition of IFNα from ODN stimulated healthy donor PBMC of 1150 ng/mL.
